In US20190375786A1, “STABLE PEPTIDES AND METHODS OF USE THEREOF” (Fred Hutchinson Cancer Research Center, priority 2016, published 2019):
No end group written: not given here.

How the values were obtained:
[1] = Resistance to reduction by DTT, RP-HPLC; format: physicochemical
Procedure, shortened: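 Peptide (12.5 μg from a 2 mg/ml stock, or 0.015 mM final in PBS) was held 30 min at room temperature with or without 10 mM DTT. Reduced and non-reduced forms were compared by C-18 RP-HPLC using a 5–45% acetonitrile/0.1% TFA gradient over 10 min, with detection at 214 and 280 nm.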

[2] = Combined resistance grouping of hitchin peptides (FIG. 27, from Table 2 data); format: physicochemical; settings: FIG. 27 grouping of hitchin peptides
Procedure: As shown by the data in TABLE 2, the tested peptides of the present disclosure show a range of resistance to proteases, reduction, and high temperature. The peptides were classified as high, medium, or low for each condition. […] For example, after a peptide is treated at 100° C., if the HPLC peak of the peptide is mostly absent as compared to HPLC peak of the peptide not treated at 100° C., then the peptide is classified as low or having low resistance to 100° C. After a peptide is treated with reducing conditions, if there is no or very minimal HPLC peak that overlaps with the HPLC peak of the peptide not treated with reducing conditions, then the peptide is classified as low or having low resistance to reducing conditions.
The peptides with the highest resistance data were further analyzed. […] The six peptides that were further tested were peptides comprising the sequences of SEQ ID NO: 27, SEQ ID NO: 24, SEQ ID NO: 6, SEQ ID NO: 10, SEQ ID NO: 12, and SEQ ID NO: 57, which were all hitchins. […] FIG. 27C is a sequence analysis of SEQ ID NO: 27, SEQ ID NO: 24, SEQ ID NO: 6, SEQ ID NO: 10, SEQ ID NO: 12, and SEQ ID NO: 57 from FIG. 27B. FIG. 27C identifies which amino acids are present at each position in SEQ ID NO: 27, SEQ ID NO: 24, SEQ ID NO: 6, SEQ ID NO: 10, SEQ ID NO: 12, and SEQ ID NO: 57. For example, at position one, all peptide sequences comprise a G amino acid residue; at position two, all peptide sequences comprise an S amino acid residue; at position three, all peptide sequences comprise either G, Q, or V amino acid, or null; and at position four, all peptide sequences comprise V, R, or K amino acid, or null. […] SEQ ID NO: 167 and SEQ ID NO: 168 describe sequences of peptides that are particularly resistant to reduction, pepsin, 75° C., and 100° C., which would typically degrade peptides. […] Additionally, SEQ ID NO: 169 describes sequences of peptides that are also particularly resistant to trypsin.

[3] = Resistance to elevated temperature, HPLC; format: physicochemical
Procedure, shortened: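 Peptides were incubated at room temperature, 70° C or 100° C for one hour in ddH2O; another protocol used 70° C, 75° C or 100° C for one hour in 0.5 mM PBS, then pelleting and analysis of the supernatant. Remaining peptide was measured by C-18 RP-HPLC, 5–45% acetonitrile/0.1% TFA over 10 min.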

[4] = Intravenous and oral administration of 14C-radiolabeled peptide to mice; plasma, urine, feces by liquid scintillation counting and HPLC; format: in vivo, female Harlan athymic nude mice; settings: mouse
Procedure: This example describes oral and intravenous administration of peptides of this disclosure. […] A peptide of SEQ ID NO: 27 was radiolabeled by the methods described in EXAMPLE 4, and was then administered intravenously or orally to female Harlan athymic nude mice, 6-8 weeks of age. Radiolabeled peptides of SEQ ID NO: 27 (SEQ ID NO: 27-r) was administered intravenously (IV) at a dose of 4.8 μCi/20 nmol. SEQ ID NO: 27-r was administered orally (PO) by oral gavage at a dose of 24 μCi/100 nmol. Mice were euthanized at various time points by CO2 asphyxiation and biological fluids were collected, including blood, urine, and feces. Samples were analyzed by RP-HPLC and liquid scintillation counting to quantify the concentration or dose of radioactivity and/or intact peptide recovered in plasma, urine, and feces. Urine was collected by abdominal palpitation immediately before CO2 asphyxiation. Blood was collected by cardiac puncture immediately after CO2 asphyxiation and centrifuged to separate plasma. Feces were collected either before or after CO2 asphyxiation by palpitation of the colon. Samples were analyzed by HPLC to quantify the concentration or dose of intact peptide recovered in plasma, urine, and feces. For HPLC analysis, urine samples were first diluted at a 1:20 ratio in water and plasma samples were diluted at a 1:5 ratio in water. Feces samples were dissolved in Tris buffer, centrifuged to remove the insoluble fraction, and supernatants were diluted at a 1:1 ratio in water.

trypsin = trypsin (Sus scrofa, UniProt P00761); experiment: Trypsin digestion resistance of soluble peptide, RP-HPLC; format: in vitro ADME, porcine; set-up: purchased Sigma Aldrich 6567; settings: 500 U/ml trypsin, 30 minutes at 37.5° C.; HPLC peak vs untreated peptide
Procedure, shortened: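 12.5 μg soluble peptide digested with 500 U/ml porcine trypsin in PBS, 30 min at 37.5° C; quenched with soybean trypsin inhibitor, with or without 10 mM DTT reduction afterwards. Intact peptide assessed by C-18 RP-HPLC, 5-45% acetonitrile/0.1% TFA gradient over 10 min.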

pepsin = pepsin (Sus scrofa, UniProt P00791); experiment: Pepsin digestion resistance in simulated gastric fluid, RP-HPLC; format: in vitro ADME, porcine; set-up: purchased Sigma Aldrich P7012; settings: 500 U/ml pepsin in SGF pH 1.05, 30 minutes at 37.5° C.; HPLC peak vs untreated peptide
Procedure, shortened: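 Peptide (12.5 μg) incubated 30 min at 37.5 °C with or without 500 U/ml pepsin in simulated gastric fluid (pH 1.05; 2% NaCl in 0.7% HCl); some reactions quenched with 100 mM Tris and 10 mM DTT. Intact peptide followed by C-18 RP-HPLC (5–45% acetonitrile/0.1% TFA over 10 min) at 214 and 280 nm.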

[5] = SYPRO Orange melting assay; format: physicochemical; settings: heating from 20° C. to 95° C.
Procedure: Protein secondary structures were assessed using Circular Dichrosim (CD). CD spectra were measured with a Jasco J-720W spectropolarimeter using a 1.0 mm path length cell. Protein samples in 10 mM phosphate buffer (pH=7.4) were at 25-30 μM protein concentration. Samples were analyzed at wavelength ranges of […]. Data were expressed in terms of relative ellipticity [θ]; (mdeg). To determine thermal stability of proteins, samples were subjected to incremental increase in temperature at a ramp of 2° C./min from 20° C. to 95° C. Stability and protein unfolding were monitored at 220 and 215 for α-helix and β-sheet secondary structures, respectively. Data are expressed in terms of relative ellipticity [θ], reported in mdeg. For SEQ ID NO: 43 and its point mutant variants, no changes to the α-helix-dominated structure were observed upon heating up to 95° C. […] Additionally, protein melting temperature (Tm) determination was performed by monitoring protein unfolding using SYPRO Orange dye (Molecular Probes). In brief, 0.1 mg/mL protein sample in 20 μL total volume PBS buffer were mixed with 24, of 10× SYPRO Orange dye. Dye intercalation into the hydrophobic protein core following protein unfolding was assayed using the C1000 Touch Thermal Cycler with CFX96 Deep Well Real-Time System (BioRad). Samples were heated from 20° C. to 95° C. with stepwise increments of 0.5° C. per minute and a 5 sec hold step for every point, followed by fluorescence reading. Tm were calculated by analyzing the derivatives of Relative florescence Units (RFU). FIG. 17D illustrates this SYPRO Orange melting assay of Peptides.

Chain of pepsin (P00791 60-385): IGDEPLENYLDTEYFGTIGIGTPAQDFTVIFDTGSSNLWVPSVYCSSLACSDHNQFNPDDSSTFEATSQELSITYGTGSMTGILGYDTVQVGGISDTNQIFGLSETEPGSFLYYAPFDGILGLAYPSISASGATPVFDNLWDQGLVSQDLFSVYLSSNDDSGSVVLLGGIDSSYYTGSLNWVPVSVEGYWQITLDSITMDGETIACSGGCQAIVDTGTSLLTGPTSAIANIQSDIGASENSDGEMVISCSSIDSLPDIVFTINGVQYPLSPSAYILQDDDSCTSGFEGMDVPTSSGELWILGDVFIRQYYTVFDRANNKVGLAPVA
Chain of trypsin (P00761 9-231): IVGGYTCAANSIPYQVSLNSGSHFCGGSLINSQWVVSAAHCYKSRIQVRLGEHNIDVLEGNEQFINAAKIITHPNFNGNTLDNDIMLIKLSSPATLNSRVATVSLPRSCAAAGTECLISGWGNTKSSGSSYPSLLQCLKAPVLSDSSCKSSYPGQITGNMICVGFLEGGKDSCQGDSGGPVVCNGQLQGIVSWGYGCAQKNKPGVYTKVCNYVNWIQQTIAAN

## GSNFKVEGACSKPCRKYCIDKGARNGKCINGRCHCYY [SEQ ID NO: 5]
[1]; 10 mM DTT, HPLC vs non-reduced peptide
  resistance to reduction by DTT (in words): resistant
[2]
  combined resistance to reduction, pepsin and elevated temperatures such as 75° C. and 100° C.: not highly resistant

## GSAVCNLKRCQLSCRSLGLLGKCIGDKCECVKHG [SEQ ID NO: 8]
[2]
  combined resistance to reduction, pepsin and elevated temperatures such as 75° C. and 100° C.: not highly resistant

## GSVRIPVSCKHSGQCLKPCKDAGMRFGKCMNGKCDCTPK [SEQ ID NO: 24]
[2]
  combined resistance to reduction, pepsin and elevated temperatures such as 75° C. and 100° C.: highly resistant

## GSQVSTNKKCSNTSQCYKTCEKVVGVAAGKCMNGKCICYP [SEQ ID NO: 18]
[2]
  combined resistance to reduction, pepsin and elevated temperatures such as 75° C. and 100° C.: not highly resistant

## GSVVIGQRCYRSPDCYSACKKLVGKATGKCTNGRCDC [SEQ ID NO: 36]
[2]
  combined resistance to reduction, pepsin and elevated temperatures such as 75° C. and 100° C.: not highly resistant

## GSQKILSNRCNNSSECIPHCIRIFGTRAAKCINRKCYCYP [SEQ ID NO: 6]
[2]
  combined resistance to reduction, pepsin and elevated temperatures such as 75° C. and 100° C.: highly resistant

## GSISIGIKCSPSIDLCEGQCRIRKYFTGYCSGDTCHCSG [SEQ ID NO: 3]
[2]
  combined resistance to reduction, pepsin and elevated temperatures such as 75° C. and 100° C.: not highly resistant
[3]; 70° C. for 1 hour, HPLC
  resistance to incubation at 70° C. (in words): resistant
[3]; 100° C. for 1 hour, HPLC
  resistance to incubation at 100° C. (in words): various degrees of degradation

## SEQ ID NO: 27-r: radiolabeled peptide of SEQ ID NO: 27, by reductive methylation with 14C formaldehyde (GSGVPINVKCRGSRDCLDPCKKAGMRFGKCINSKCHCTP; cysteine pairing not given here; also: radiolabeled by reductive methylation with 14C formaldehyde (sites not given here))
[4]; IV 20 nmol and PO 100 nmol
  radioactivity in urine: some radioactivity from the administered peptide was detected
  time up to which radioactive signal from the dosed peptide was present in plasma: at least 50 hours
[4]; IV, 20 nmol (4.8 μCi 14C)
  plasma radioactivity as percent of the administered dose: ~10%
[4]; PO 100 nmol, tandem HPLC and liquid scintillation counting
  nature of radioactively detected peptide in plasma (intact vs fragments): nearly all of the radioactively detected peptide in plasma was due to fragments
[4]; PO 100 nmol, tandem HPLC and liquid scintillation counting, 3 and 8 hours
  intact peptide in feces: detected
[4]; PO by gavage, 100 nmol (24 μCi 14C)
  plasma radioactivity as percent of the administered dose: ~1%

## GSQIDTNVKCSGSSKCVKICIDRYNTRGAKCINGRCTCYP [SEQ ID NO: 35]
[2]
  combined resistance to reduction, pepsin and elevated temperatures such as 75° C. and 100° C.: not highly resistant

## GSGVPTDVKCRGSPQCIQPCKDAGMRFGKCMNGKCHCTPK [SEQ ID NO: 56]
[2]
  combined resistance to reduction, pepsin and elevated temperatures such as 75° C. and 100° C.: not highly resistant

## GSRPTDIKCSASYQCFPVCKSRFGKTNGRCVNGLCDCF [SEQ ID NO: 10]
[2]
  combined resistance to reduction, pepsin and elevated temperatures such as 75° C. and 100° C.: highly resistant

## GSQVQTNVKCQGGSCASVCRREIGVAAGKCINGKCVCYRN [SEQ ID NO: 30]
[2]
  combined resistance to reduction, pepsin and elevated temperatures such as 75° C. and 100° C.: not highly resistant

## 48 (GSGIGDPVTCLKSGAICHPVFCPRRYKQIGTCGLPGTKCCKKP) [compound 48]
[1]; 10 mM DTT in PBS, room temperature, 30 minutes, HPLC peak vs untreated peptide
  Resistance to DTT Reduction (10 mM): Low (A peptide classified as low indicates that the majority (over 75%) of the HPLC peak of the treated peptide disappeared as compared to the HPLC peak of the untreated peptide)
trypsin
  Resistance to Trypsin (500 U/ml): Low (A peptide classified as low indicates that the majority (over 75%) of the HPLC peak of the treated peptide disappeared as compared to the HPLC peak of the untreated peptide)
[3]; 75° C. for one hour, HPLC peak vs untreated peptide
  Resistance to Temperature (75° C.): High (A peptide classified as high indicates that the majority (at least 75%) of the HPLC peak of the treated peptide is still present as compared to the HPLC peak of the untreated peptide)
[3]; 100° C. for one hour, HPLC peak vs untreated peptide
  Resistance to Temperature (100° C.): High (A peptide classified as high indicates that the majority (at least 75%) of the HPLC peak of the treated peptide is still present as compared to the HPLC peak of the untreated peptide)
pepsin
  Resistance to Pepsin (500 U/ml): High (A peptide classified as high indicates that the majority (at least 75%) of the HPLC peak of the treated peptide is still present as compared to the HPLC peak of the untreated peptide)

B1: HuScn: Human siderocalin, reference protein in the SYPRO Orange melting assay (protein, UniProt P80188 21-198, looked up)
Neutrophil …: QDSTSDLIPAPPLSKVPLQQNFQDNQFQGKWYVVGLAGNAILREDKDPQKMYATIYELKEDKSYNVTSVLFRKKKCDYWIRTFVPGCQPGEFTLGNIKSYPGLTSYLVRVVSTNYNQHAMVFFKKVSQNREYFKITLYGRTKELTSELKENFIRFSKSLGLPENHIVFPVPIDQCIDG
[5]
  melting temperature (Tm): 79 °C
